Common to all, as to test: cell-based or functional assay
Assay [1] has as its target HIV-1 93IN905 envelope glycoprotein (Env) on pseudovirus (HIV-1).
The target of assay [2] is HIV-1 APV6 envelope glycoprotein (Env) on pseudovirus (HIV-1).
Assay [3] addresses HIV-1 92BR020 envelope glycoprotein (Env) on pseudovirus (HIV-1).
The target of assay [4] is HIV-1 JRFL envelope glycoprotein (Env) on pseudovirus (HIV-1).
Assay [5] has as its target HIV-1 NL43 envelope glycoprotein (Env) on pseudovirus (HIV-1).
Assay [6] concerns the target HIV-1 MGRM-C-028 envelope glycoprotein (Env) on pseudovirus (HIV-1).
For assay [7], the target named is HIV-1 94UG103 envelope glycoprotein (Env) on pseudovirus (HIV-1).
In assay [8] the target is HIV-1 92RW020 envelope glycoprotein (Env) on pseudovirus (HIV-1).
Assay [9] concerns the target HIV-1 93UG077 envelope glycoprotein (Env) on pseudovirus (HIV-1).
The target of assay [10] is HIV-1 MGRM-C-027 envelope glycoprotein (Env) on pseudovirus (HIV-1).
The target of assay [11] is HIV-1 APV17 envelope glycoprotein (Env) on pseudovirus (HIV-1).
For assay [12], the target named is HIV-1 JRCSF envelope glycoprotein (Env) on pseudovirus (HIV-1) (UniProt P20871).
For assay [13], the target named is HIV-1 APV13 envelope glycoprotein (Env) on pseudovirus (HIV-1).
Assay [14] concerns the target HIV-1 MGRM-C-026 envelope glycoprotein (Env) on pseudovirus (HIV-1).
Assay [15] concerns the target HIV-1 MGRM-A-010 envelope glycoprotein (Env) on pseudovirus (HIV-1).

Results on six substances are retold here after patent US20240132578A1.

Turning to PGT-123 monoclonal antibody (4858_P08), the IC50 neutralization in assay [1] is 0.0071 µg/mL; in assay [2], 0.0328 µg/mL; in assay [3], 0.013 µg/mL; in [4], 0.0283 µg/mL; in assay [5], > 10 µg/mL; in assay [6], 0.443 µg/mL. Moreover, the IC50 neutralization in [7] was 0.846 µg/mL; in assay [8], 0.0038 µg/mL; in assay [9], 0.0303 µg/mL; in assay [10] it was 0.0169 µg/mL; in [11] it was 0.18 µg/mL; in [12], 0.0423 µg/mL. In addition, the IC50 neutralization in assay [13] was found to be 0.222 µg/mL; in [14], 0.0031 µg/mL; in assay [15] it was 0.492 µg/mL.

Take PGT-130 monoclonal antibody (5147_N06): the IC50 neutralization in assay [1] is 0.0182 µg/mL; in assay [2], > 10 µg/mL; in assay [3], 1.12 µg/mL; in [4], 0.0346 µg/mL; in assay [5] it was > 10 µg/mL; in [6], > 10 µg/mL. Moreover, the IC50 neutralization in assay [7] was 0.635 µg/mL; in assay [8], 0.014 µg/mL; in [9], > 10 µg/mL; in assay [10], 0.0052 µg/mL; in assay [11], > 10 µg/mL; in [12] it was 0.0089 µg/mL. Further, the IC50 neutralization is 0.0345 µg/mL in assay [13], 0.0173 µg/mL in assay [14] and 0.0054 µg/mL in assay [15].

For the substance PGT-126 monoclonal antibody (5141_B17), the IC50 neutralization is 0.0194 µg/mL in assay [1]; 0.0249 µg/mL in assay [2]; 0.0163 µg/mL in assay [3]; 0.014 µg/mL in [4]; > 10 µg/mL in [5]; 0.283 µg/mL in assay [6]. Further, the IC50 neutralization turned out to be 0.0091 µg/mL in assay [7]; 0.0046 µg/mL in assay [8]; 0.0256 µg/mL in assay [9]; 1.14 µg/mL in assay [10]; 0.501 µg/mL in assay [11]; 0.0061 µg/mL in assay [12]. For the same substance, the values for the IC50 neutralization in [13], in [14] and in assay [15] were 0.012 µg/mL, 0.0076 µg/mL and 0.0033 µg/mL, respectively.

Regarding “1496_C09 (PG9) (TCN-109) monoclonal antibody”, the IC50 neutralization in [1] is 0.048 µg/mL; in assay [2], 0.214 µg/mL; in assay [5] it was 0.687 µg/mL; in assay [6], 0.121 µg/mL; in [7], 0.31 µg/mL; in assay [8], 0.161 µg/mL. The IC50 neutralization in assay [10] turned out to be 2.45 µg/mL; in [12], 0.0048 µg/mL; in assay [14], 0.113 µg/mL; in assay [15], 0.0375 µg/mL.

PGT-125 monoclonal antibody (5123_A06): the IC50 neutralization in [1] is 0.0137 µg/mL; in assay [2], 0.0359 µg/mL; in assay [3] it was 0.0214 µg/mL; in assay [4], 0.0156 µg/mL; in [5], > 10 µg/mL; in assay [6], 5.78 µg/mL. For the same substance, the IC50 neutralization is 0.0124 µg/mL in [7]; 0.0028 µg/mL in [8]; 0.0262 µg/mL in assay [9]; > 10 µg/mL in assay [10]; 7.31 µg/mL in assay [11]; 0.006 µg/mL in assay [12]. Also, the IC50 neutralization was determined as 0.0128 µg/mL in [13], 0.0106 µg/mL in [14] and 0.0055 µg/mL in assay [15].

Consider “PGT-121 monoclonal antibody (4838_L06; 4873_E03)”, for which the IC50 neutralization in assay [5] was > 10 µg/mL.
